Legend:
Test in all cases: fluorescence polarisation
C81A S100A4 = C81A S100A4 (human, UniProt P26447 1-101, C81A)
C81S S100A4 = C81S S100A4 (human, UniProt P26447 1-101, C81S)
C3R/C86S S100A4 = C3R/C86S S100A4 (human, UniProt P26447 1-101, C3R | C86S)
wild-type human S100A4 = wild-type human S100A4 (human, UniProt P26447 1-101)
Sequence of wild-type human S100A4 (P26447 whole entry, one chain of several): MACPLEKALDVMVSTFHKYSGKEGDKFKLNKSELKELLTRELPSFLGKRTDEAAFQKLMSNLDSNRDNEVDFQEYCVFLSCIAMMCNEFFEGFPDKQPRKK

Sequence of C3R/C86S S100A4 (P26447 whole entry C3R/C86S, one chain of several): as the sequence (P26447 whole entry, one chain of several) above, with C3R, C86S counted along it
Sequence of C81A S100A4 (P26447 whole entry C81A, one chain of several): as the sequence (P26447 whole entry, one chain of several) above, with C81A counted along it
Sequence of C81S S100A4 (P26447 whole entry C81S, one chain of several): as the sequence (P26447 whole entry, one chain of several) above, with C81S counted along it

B1: FITC-Ahx-DAMNREVSSLKNKLRR-OH peptide (FITC-MIIA^1908−1923) (peptide)
peptide: DAMNREVSSLKNKLRR
HELM: PEPTIDE1{[O=C1OC2(c3ccc(O)cc3Oc3cc(O)ccc32)c2ccc(NC(=S)[*:2])cc21].[O=C(CCCCCN[*:1])[*:2]].D.A.M.N.R.E.V.S.S.L.K.N.K.L.R.R}$$$$V2.0
SMILES: CSCC[C@H](NC(=O)[C@H](C)NC(=O)[C@H](CC(=O)O)NC(=O)CCCCCNC(=S)Nc1ccc2c(c1)C(=O)OC21c2ccc(O)cc2Oc2cc(O)ccc21)C(=O)N[C@@H](CC(N)=O)C(=O)N[C@@H](CCCNC(=N)N)C(=O)N[C@@H](CCC(=O)O)C(=O)N[C@H](C(=O)N[C@@H](CO)C(=O)N[C@@H](CO)C(=O)N[C@@H](CC(C)C)C(=O)N[C@@H](CCCCN)C(=O)N[C@@H](CC(N)=O)C(=O)N[C@@H](CCCCN)C(=O)N[C@@H](CC(C)C)C(=O)N[C@@H](CCCNC(=N)N)C(=O)N[C@@H](CCCNC(=N)N)C(=O)O)C(C)C
For B1, which Kd (C81A S100A4) is on record?
The Kd was 46.6 ± 3.2 µM.

And the Kd (C81S S100A4)?
The Kd was 128 ± 15.7 µM.

And the Kd (C3R/C86S S100A4)?
Its Kd is 1.4 ± 0.1 µM.

And the Kd (wild-type human S100A4)?
The Kd was 2.3 ± 0.3 µM.

— publication PMC3220277 (Biochemistry, 2011)
